In patent US20240366726A1 (Genentech, published 2024):

T1: cynomolgus monkey CD122/CD132 on lymphocytes (NK cells and CD8+ T cells in cynomolgus monkey PBMCs) (cynomolgus monkey, UniProt Q38J85 27-551; A0A2K5VGJ6 23-369)
T1 sequence (looked up) 1: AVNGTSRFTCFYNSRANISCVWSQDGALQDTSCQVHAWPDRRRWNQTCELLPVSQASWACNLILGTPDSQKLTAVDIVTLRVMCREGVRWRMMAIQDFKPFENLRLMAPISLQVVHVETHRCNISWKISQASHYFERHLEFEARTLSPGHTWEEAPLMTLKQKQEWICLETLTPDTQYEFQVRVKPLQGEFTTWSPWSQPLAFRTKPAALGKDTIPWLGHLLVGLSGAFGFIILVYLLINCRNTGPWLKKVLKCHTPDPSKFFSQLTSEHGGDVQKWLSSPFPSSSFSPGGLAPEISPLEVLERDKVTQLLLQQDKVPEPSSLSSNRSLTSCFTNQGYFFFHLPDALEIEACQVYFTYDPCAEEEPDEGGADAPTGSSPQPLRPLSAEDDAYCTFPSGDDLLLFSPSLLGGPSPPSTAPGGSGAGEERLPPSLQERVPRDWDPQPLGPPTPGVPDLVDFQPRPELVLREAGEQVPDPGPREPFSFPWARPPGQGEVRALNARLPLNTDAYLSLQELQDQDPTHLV
T1 sequence (looked up) 2: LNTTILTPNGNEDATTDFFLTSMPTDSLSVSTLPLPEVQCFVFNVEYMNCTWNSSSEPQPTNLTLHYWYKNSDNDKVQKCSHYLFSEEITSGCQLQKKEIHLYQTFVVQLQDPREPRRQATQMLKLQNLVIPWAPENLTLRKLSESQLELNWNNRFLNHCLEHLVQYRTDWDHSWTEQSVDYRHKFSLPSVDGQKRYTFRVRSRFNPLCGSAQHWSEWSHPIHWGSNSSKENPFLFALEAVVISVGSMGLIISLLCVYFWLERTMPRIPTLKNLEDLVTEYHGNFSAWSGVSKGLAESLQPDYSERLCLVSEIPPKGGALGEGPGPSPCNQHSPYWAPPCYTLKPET

T2: human CD122/CD132 on lymphocytes (NK cells and CD8+ T cells in human PBMCs) (human, UniProt P31785 23-369)
T2 sequence 1: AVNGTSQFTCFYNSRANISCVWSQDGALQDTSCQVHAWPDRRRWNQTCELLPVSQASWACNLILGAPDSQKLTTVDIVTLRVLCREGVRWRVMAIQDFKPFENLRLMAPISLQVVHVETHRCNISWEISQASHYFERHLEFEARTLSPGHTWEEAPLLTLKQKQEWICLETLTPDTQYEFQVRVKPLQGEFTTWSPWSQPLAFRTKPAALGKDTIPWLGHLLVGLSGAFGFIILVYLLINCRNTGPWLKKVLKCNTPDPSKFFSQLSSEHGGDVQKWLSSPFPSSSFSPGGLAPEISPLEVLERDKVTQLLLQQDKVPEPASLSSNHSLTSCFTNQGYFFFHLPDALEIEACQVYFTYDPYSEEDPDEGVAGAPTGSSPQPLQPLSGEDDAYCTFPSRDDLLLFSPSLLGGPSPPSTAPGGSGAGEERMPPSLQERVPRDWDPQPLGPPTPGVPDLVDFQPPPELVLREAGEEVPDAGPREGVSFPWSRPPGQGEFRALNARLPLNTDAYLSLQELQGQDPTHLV
T2 sequence 2: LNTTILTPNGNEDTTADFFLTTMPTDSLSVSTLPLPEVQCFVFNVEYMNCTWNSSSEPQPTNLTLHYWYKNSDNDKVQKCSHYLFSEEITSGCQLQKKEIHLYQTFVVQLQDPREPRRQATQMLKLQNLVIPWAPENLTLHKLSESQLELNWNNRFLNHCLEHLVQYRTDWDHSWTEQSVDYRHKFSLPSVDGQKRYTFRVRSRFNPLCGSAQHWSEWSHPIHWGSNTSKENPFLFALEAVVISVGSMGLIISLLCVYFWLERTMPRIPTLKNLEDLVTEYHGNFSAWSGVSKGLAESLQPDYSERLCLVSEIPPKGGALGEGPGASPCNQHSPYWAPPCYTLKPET

T3: mouse FcRn (mouse, UniProt Q61559 22-297; P01887 21-119)
T3 construct: also called neonatal Fc receptor
T3 sequence (looked up): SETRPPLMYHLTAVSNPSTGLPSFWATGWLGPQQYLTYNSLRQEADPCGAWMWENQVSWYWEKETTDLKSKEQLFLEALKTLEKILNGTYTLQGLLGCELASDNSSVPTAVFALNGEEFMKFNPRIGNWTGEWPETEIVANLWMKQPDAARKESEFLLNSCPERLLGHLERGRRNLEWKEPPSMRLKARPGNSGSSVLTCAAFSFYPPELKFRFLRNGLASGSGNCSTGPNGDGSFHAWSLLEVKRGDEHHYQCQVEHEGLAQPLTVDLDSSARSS
T3 sequence (b2m, looked up): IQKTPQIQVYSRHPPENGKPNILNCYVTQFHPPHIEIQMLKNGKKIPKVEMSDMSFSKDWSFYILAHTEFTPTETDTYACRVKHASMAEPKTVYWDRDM


Tests used:
[1] = biological target: human complement component 1q (C1q) (human, UniProt P02745 23-245; P02746 28-253; P02747 29-245); assay: BLI; tested as XENP24306+XENP32803
[2] = biological target: T1, cynomolgus monkey CD122/CD132 on …; assay: cell-based or functional assay
[3] = biological target: T2, human CD122/CD132 on lymphocytes (NK …); assay: cell-based or functional assay
mouse FcRn = biological target: T3, mouse FcRn; assay: Bio-Layer Interferometry, pH 6.0; tested as ~82%/~18% mixture
cynomolgus monkey FcRn = biological target: T4, cynomolgus monkey FcRn (cynomolgus monkey, UniProt Q8SPV9 24-297; Q8SPW0 21-119); assay: as above
T4 construct: also called neonatal Fc receptor

human FcRn = biological target: T5, human FcRn (human, UniProt P55899 24-297; P61769 21-119); assay: as above
T5 construct: also called neonatal Fc receptor

Sequence of human complement component 1q (C1q) (P02745 23-245 limits assumed, chain 1 of 3): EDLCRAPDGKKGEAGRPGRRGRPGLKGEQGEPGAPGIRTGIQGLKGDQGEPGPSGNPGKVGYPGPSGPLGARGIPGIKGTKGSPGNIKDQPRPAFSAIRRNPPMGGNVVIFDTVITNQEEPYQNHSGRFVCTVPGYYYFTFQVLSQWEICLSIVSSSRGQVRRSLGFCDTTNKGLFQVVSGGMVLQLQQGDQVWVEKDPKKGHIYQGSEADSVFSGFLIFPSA
Sequence of human complement component 1q (C1q) (P02746 28-253 limits assumed, chain 2 of 3): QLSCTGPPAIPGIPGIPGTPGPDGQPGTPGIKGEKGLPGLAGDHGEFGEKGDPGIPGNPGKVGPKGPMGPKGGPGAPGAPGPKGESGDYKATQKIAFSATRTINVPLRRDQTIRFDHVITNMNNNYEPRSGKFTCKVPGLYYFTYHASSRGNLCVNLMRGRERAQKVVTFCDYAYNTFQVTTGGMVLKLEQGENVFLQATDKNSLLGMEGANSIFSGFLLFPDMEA
Sequence of human complement component 1q (C1q) (P02747 29-245 limits assumed, chain 3 of 3): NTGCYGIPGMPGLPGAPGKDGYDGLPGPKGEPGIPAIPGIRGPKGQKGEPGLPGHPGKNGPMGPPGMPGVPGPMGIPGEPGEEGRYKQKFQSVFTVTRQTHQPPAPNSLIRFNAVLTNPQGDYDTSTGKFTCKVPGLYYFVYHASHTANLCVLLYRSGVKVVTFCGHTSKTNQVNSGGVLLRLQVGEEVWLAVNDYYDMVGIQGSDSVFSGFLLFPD
T4 sequence (Q8SPV9 24-297 limits assumed, chain 1 of 2): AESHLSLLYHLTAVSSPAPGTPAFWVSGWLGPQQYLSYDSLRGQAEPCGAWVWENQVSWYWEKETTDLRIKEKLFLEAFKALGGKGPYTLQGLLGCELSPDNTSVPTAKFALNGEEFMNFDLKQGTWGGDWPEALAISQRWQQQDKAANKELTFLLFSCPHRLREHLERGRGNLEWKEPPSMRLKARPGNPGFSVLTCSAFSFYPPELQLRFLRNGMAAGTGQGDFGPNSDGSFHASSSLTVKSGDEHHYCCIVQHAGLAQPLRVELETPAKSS
T4 sequence (Q8SPW0 21-119 limits assumed, chain 2 of 2): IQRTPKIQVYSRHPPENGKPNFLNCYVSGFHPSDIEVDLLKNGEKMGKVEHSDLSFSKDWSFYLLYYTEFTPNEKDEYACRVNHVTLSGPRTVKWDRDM

Row | binding result [1] | EC50 of CD8+ T cell proliferation in cynomolgus monkey PBMCs [2] [µg/mL] | EC50 of NK-cell proliferation in cynomolgus monkey PBMCs [2] [µg/mL] | EC50 of human CD8+ T cell proliferation (Ki67+) in human PBMCs [3] [µg/mL] | EC50 of human NK-cell proliferation (Ki67+) in human PBMCs [3] [µg/mL] | potency on human CD8+ terminal effector T cells (Ki67 proliferation), fold lower than recombinant wild-type IL-15 [3] [fold] | potency on human CD8+ terminal effector T cells (Ki67 proliferation), fold lower than wild-type IL-15/wild-type IL-15Rα heterodimer Fc fusion XENP22853 [3] [fold] | binding result (mouse FcRn) | binding result (cynomolgus monkey FcRn) | binding result (human FcRn) | Binder
1 | no binding | 3.8 | 0.5 | 12.7 | 1.2 | ~900 | ~400 | binds | binds | binds | XENP24306 (Fc fusion, Never tested alone: every experiment used a combination of XENP24306 (~82%) and XENP32803 (~18%); Each result of the combination is written once for each of the two proteins; also called IL15/IL15Rα heterodimeric protein; XENP24306+XENP32803 (about 82% of the tested combination); copies: 1 + 1) chain 1: NWVNVISDLKKIEDLIQSMHIDATLYTESNVHPSCKVTAMKCFLLELQVISLESGDASIHDTVQDLIILANNSLSSNGNVTESGCKECEELEEKNIKEFLQSFVHIVQMFINTSGGGGSEPKSSDKTHTCPPCPAPPVAGPSVFLFPPKPKDTLMISRTPEVTCVVVDVKHEDPEVKFNWYVDGVEVHNAKTKPREEEYNSTYRVVSVLTVLHQDWLNGKEYKCKVSNKALPAPIEKTISKAKGQPREPQVYTLPPSREEMTKNQVSLTCDVSGFYPSDIAVEWESDGQPENNYKTTPPVLDSDGSFFLYSKLTVDKSRWEQGDVFSCSVLHEALHSHYTQKSLSLSPGK chain 2: ITCPPPMSVEHADIWVKSYSLYSRERYICNSGFKRKAGTSSLTECVLNKATNVAHWTTPSLKCIRGGGGSEPKSSDKTHTCPPCPAPPVAGPSVFLFPPKPKDTLMISRTPEVTCVVVDVKHEDPEVKFNWYVDGVEVHNAKTKPREEQYNSTYRVVSVLTVLHQDWLNGKEYKCKVSNKALPAPIEKTISKAKGQPREPQVYTLPPSREQMTKNQVKLTCLVKGFYPSDIAVEWESNGQPENNYKTTPPVLDSDGSFFLYSKLTVDKSRWQQGNVFSCSVLHEALHSHYTQKSLSLSPGK
2 | no binding | 3.8 | 0.5 | 12.7 | 1.2 | ~900 | ~400 | binds | binds | binds | XENP32803 (Fc fusion, Never tested alone: every experiment used a combination of XENP24306 (~82%) and XENP32803 (~18%); Each result of the combination is written once for each of the two proteins; also called IL15/IL15Rα heterodimeric protein; XENP24306+XENP32803 (about 18% of the tested combination); copies: 1 + 1) chain 1: NWVNVISDLKKIEDLIQSMHIDATLYTESNVHPSCKVTAMKCFLLELQVISLESGDASIHDTVQDLIILANNSLSSNGNVTESGCKECEELEEKNIKEFLQSFVHIVQMFINTSGGGGSEPKSSDKTHTCPPCPAPPVAGPSVFLFPPKPKDTLMISRTPEVTCVVVDVKHEDPEVKFNWYVDGVEVHNAKTKPREEEYNSTYRVVSVLTVLHQDWLNGKEYKCKVSNKALPAPIEKTISKAKGQPREPQVYTLPPSREEMTKNQVSLTCDVSGFYPSDIAVEWESDGQPENNYKTTPPVLDSDGSFFLYSKLTVDKSRWEQGDVFSCSVLHEALHSHYTQKSLSLSPGK chain 2: ITCPPPMSVEHADIWVKSYSLYSRERYICNSGFKRKAGTSSLTECVLNKATNVAHWTTPSLKCIRGGGGSEPKSSDKTHTCPPCPAPPVAGPSVFLFPPTPKDTLMISRTPEVTCVVVDVKHEDPEVKFNWYVDGVEVHNAKTKPREEQYNSTYRVVSVLTVLHQDWLNGKEYKCKVSNKALPAPIEKTISKAKGQPREPQVYTLPPSREQMTKNQVKLTCLVKGFYPSDIAVEWESNGQPENNYKTTPPVLDSDGSFFLYSKLTVDKSRWQQGNVFSCSVLHEALHSHYTQKSLSLSPGK
